Tests used:
[1] = biological target: glutamine synthetase type I-α from Methermicoccus shengliensis (Methermicoccus shengliensis (endogenous, ZC-1, DSM 18856)); experiment: native gel or EMSA
[2] = biological target: glutamine synthetase type I-α from Methermicoccus shengliensis (Methermicoccus shengliensis (endogenous, ZC-1, DSM 18856)); experiment: crystal structure
[3] = biological target: glutamine synthetase type I-α from Methanothermococcus thermolithotrophicus (Methanothermococcus thermolithotrophicus (endogenous, DSM 2095)); experiment: native gel or EMSA
[4] = biological target: glutamine synthetase type I-α from Methanothermococcus thermolithotrophicus (Methanothermococcus thermolithotrophicus (endogenous, DSM 2095)); experiment: crystal structure

| stoichiometry N [1] | stoichiometry N [2] | stoichiometry N [3] | stoichiometry N [4] | Substance |
| --- | --- | --- | --- | --- |
| 12 | 12 |  |  | glutamine synthetase type I-α from Methermicoccus shengliensis (enzyme) |
|  |  | 12 | 12 | glutamine synthetase type I-α from Methanothermococcus thermolithotrophicus (enzyme) |
